Biological target: T1, CHMP3 (human, UniProt Q9Y3E7 1-222)
T1 sequence (looked up): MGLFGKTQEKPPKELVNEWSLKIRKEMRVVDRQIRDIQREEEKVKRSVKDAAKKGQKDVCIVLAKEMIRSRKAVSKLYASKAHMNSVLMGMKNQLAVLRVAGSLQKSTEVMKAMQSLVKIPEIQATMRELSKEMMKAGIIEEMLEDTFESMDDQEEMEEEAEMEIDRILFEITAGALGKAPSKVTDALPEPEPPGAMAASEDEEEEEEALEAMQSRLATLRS
Assay: negative-stain electron microscopy

binding result: binds
B1: CHMP2A (natural protein, human, UniProt O43633 1-222, looked up)
chain: MDLLFGRRKTPEELLRQNQRALNRAMRELDRERQKLETQEKKIIADIKKMAKQGQMDAVRIMAKDLVRTRRYVRKFVLMRANIQAVSLKIQTLKSNNSMAQAMKGVTKAMGTMNRQLKLPQIQKIMMEFERQAEIMDMKEEMMNDAIDDAMGDEEDEEESDAVVSQVLDELGLSLTDELSNLPSTGGSLSVAAGGKKAEAAASALADADADLEERLKNLRRD

Reference: PMC3727925 (Molecular Biology of the Cell, 2013)
